Target: recombinant SARS-CoV-2 spike protein (S1S2ECD-His; Sino Biological) (SARS-CoV-2) (UniProt P0DTC2)

heat-inactivated recombinant human rod domain of vimentin (ΔrhRod) (from UniProt P08670 96-407)
Kd: 1100 nM
